T1: recombinant human TNFR2-Fc protein (Sino Biological) (human, UniProt P20333 23-257, limits assumed)
T1 construct: bought; also called human TNFR2 protein; not shown: Fc part of the bought fusion protein; not described
T1 sequence (looked up): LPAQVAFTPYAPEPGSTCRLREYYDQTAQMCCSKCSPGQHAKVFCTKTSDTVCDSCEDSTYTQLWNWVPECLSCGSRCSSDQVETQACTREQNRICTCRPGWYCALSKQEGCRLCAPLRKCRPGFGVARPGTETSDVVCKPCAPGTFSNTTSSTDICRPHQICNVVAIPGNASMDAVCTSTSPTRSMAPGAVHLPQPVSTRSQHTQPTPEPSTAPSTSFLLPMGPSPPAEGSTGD

T2: wild type, full length human TNFR2 (on cells) (human, UniProt P20333 23-461)
T2 construct: whole, on cells; also called hTNFR2; TNFRII
T2 sequence (looked up): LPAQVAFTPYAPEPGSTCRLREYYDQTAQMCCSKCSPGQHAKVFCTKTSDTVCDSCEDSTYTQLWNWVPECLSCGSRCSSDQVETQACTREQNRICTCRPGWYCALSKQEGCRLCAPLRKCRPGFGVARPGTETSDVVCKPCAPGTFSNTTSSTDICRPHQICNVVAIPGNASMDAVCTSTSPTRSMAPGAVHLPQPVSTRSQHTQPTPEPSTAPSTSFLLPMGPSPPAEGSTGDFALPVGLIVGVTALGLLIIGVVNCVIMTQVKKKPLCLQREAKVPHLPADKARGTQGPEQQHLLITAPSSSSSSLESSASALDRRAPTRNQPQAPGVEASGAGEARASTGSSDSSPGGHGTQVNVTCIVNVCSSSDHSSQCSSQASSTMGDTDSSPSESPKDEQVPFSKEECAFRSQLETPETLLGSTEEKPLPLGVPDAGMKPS

T3: hTNFRII (Sinobioologicals Cat nr10414-H08H) (human, UniProt P20333 23-257)
T3 construct: bought; also called immobilized TNFR2
T3 sequence (looked up): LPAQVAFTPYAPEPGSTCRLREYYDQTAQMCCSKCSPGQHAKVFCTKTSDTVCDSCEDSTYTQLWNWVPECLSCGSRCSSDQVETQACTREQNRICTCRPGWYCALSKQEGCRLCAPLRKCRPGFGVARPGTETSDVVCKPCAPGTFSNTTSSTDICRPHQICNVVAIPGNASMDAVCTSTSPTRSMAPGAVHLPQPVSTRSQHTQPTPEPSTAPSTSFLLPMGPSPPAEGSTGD


What was measured:
[1] = target: T1, recombinant human TNFR2-Fc protein …; assay: ELISA, coated TNFR2-Fc
Method: 96-well plates (Lumitrac 600 LIA plate, Greiner) were coated overnight at 4° C. with recombinant human or mouse TNFR2-Fc protein (Sino Biological) at 1 pmol/well. After washing, titrated doses of anti-TNFR2 mAbs from 20 μg/ml to 0.1 ng/ml (133 nM to 1 pM) were allowed to bind for 1 hour. Plates were then washed again, and bound antibodies were detected with an anti-human-F(ab)-HRP secondary antibody (Jackson ImmunoResearch) diluted in 50 ng/ml. Super Signal ELISA Pico (Thermo Scientific) was used as substrate and the plates were analyzed using Tecan Ultra Microplate reader.

[2] = target: T2, wild type, full length human TNFR2 (on …); assay: FACS, activated CD4+ T cells
Method: The ability and affinity of TNFR2 n-CoDeR® antibodies to bind TNFR2 expressed on cells were obtained using in vitro activated CD4⁺ T cells. Human CD4⁺ T cells were stimulated with 50 ng/ml rhIL-2 (R&D systems) and Dynabeads® T-Activator CD3/CD28 for T-Cell Expansion and Activation (Gibco) 2-3 days at 37 degrees. […] Cells were then incubated with an APC conjugated a-human IgG secondary ab (Jackson) followed by analysis by flow cytometry (FACSVerse, BD).

[3] = target: T3, hTNFRII (Sinobioologicals Cat …); assay: blocking ELISA, coated hTNFRII, competitor hTNF-α-bio 5 nM
Method: 96-well plates were coated with hTNFRII (Sinobioologicals Cat nr10414-H08H) or mTNFRII (Sinobioologicals Cat No. 50128 M08H) at 2.5 pmol/well in ELISA coating buffer (0.1 M sodium carbonate pH 9.5) and incubated overnight at 4° C. After washing in ELISA wash buffer (PBS with 0.05% Tween20), the plates were incubated under slow agitation for 1 h in room temperature with n-CoDeR® mAbs at 10 μg/ml (one-dose ELISA) or 33 nM and subsequent 1:2 dilutions (titration ELISA) in block buffer containing 0.45% fish gelatin. […] Thereafter, plates were washed. For the human ELISAs, Streptavidin-HRP (Jackson Cat No. 016-030-084) diluted 1:2000 in block buffer were added and again incubated for 1 h at room temperature followed by washes first in ELISA buffer and then in Tris buffer (pH 9.8). The substrate (Super Signal ELISA Pico from Thermo Scientific Cat. No. 37069) were thereafter diluted according to the manufacturers instruction, added to the wells and incubated in darkness for 10 min before reading in a Tecan Ultra. […] After washing, anti-Rabbit-HRP diluted 1:10 000 in block buffer was added and again incubated for 1 h at room temperature. Substrate adding and reading were performed as above.

| EC50 [1] [nM] | EC50 [2] [nM] | EC50 [3] [nM] | Binder |
| --- | --- | --- | --- |
| 0.22 | 32 | 0.03 | 005-F10 (antibody, V domains shown, IgG) VH: EVQLLESGGGLVQPGGSLRLSCAASGFTFSDYYMTWIRQAPGKGLEWVSGISGSGGYIHYADSVKGRFTISRDNSKNTLYLQMNSLRAEDTAVYYCAREGLLPDAFDIWGQGTLVTVSS VL: not shown |
| 0.38 | 2.3 | – | 004-E08 (antibody, V domains shown, IgG) VH: EVQLLESGGGLVQPGGSLRLSCAASGFTFSRYWMHWVRQVPGKGLEWVSGISDSGVVTYYADSVKGRFTISRDNSKNTLYLQMNSLRAEDTAVYYCARAQSVAFDIWGQGTLVTVSS VL: QSVLTQPPSASGTPGQRVTISCSGSSSNIGAGHDVHWYQQLPGTAPKLLIYYDDLLPSGVPDRFSGSKSGTSASLAISGLRSEDEADYYCAAWDDSLSGWVFGGGTKLTVLG |
| 0.29 | 1.1 | 0.9 | 001-H10 (antibody, V domains shown, IgG) VH: EVQLLESGGGLVQPGGSLRLSCAASGFTFDDYGMSWVRQAPGKGLEWVSVIYSGGSTYYADSVKGRFTISRDNSKNTLYLQMNSLRAEDTAVYYCARDRSSSWYRDGMDVWGQGTLVTVSS VL: QSVLTQPPSASGTPGQRVTISCTGSSSNIGAGYDVHWYQQLPGTAPKLLIYGNSNRPSGVPDRFSGSKSGTSASLAISGLRSEDEADYYCAAWDDSLSGWVFGGGTKLTVLG |
| 0.2 | 4.1 | 0.3 | 001-E06 (antibody, V domains shown, IgG) VH: EVQLLESGGGLVQPGGSLRLSCAASGFTFSSNYMSWVRQAPGKGLEWVALIWYDGSNKYYADSVKGRFTISRDNSKNTLYLQMNSLRAEDTAVYYCAKDPLFDSWGQGTLVTVSS VL: QSVLTQPPSASGTPGQRVTISCTGRSSNIGAGYDVHWYQQLPGTAPKLLIYDNNKRPSGVPDRFSGSKSGTSASLAISGLRSEDEADYYCAAWDDSLNGPVFGGGTKLTVLG |
| 0.3 | 16 | 1.4 | 001-H09 (antibody, V domains shown, IgG) VH: EVQLLESGGGLVQPGGSLRLSCAASGFTFSSYAMSWVRQAPGKGLEWVATISYHGSDKDYADSVKGRFTISRDNSKNTLYLQMNSLRAEDTAVYYCARDANYHSSGYYYDVFDIWGQGTLVTVSS VL: not shown |
| 0.23 | 1.5 | – | 001-B05 (antibody, V domains shown, IgG) VH: EVQLLESGGGLVQPGGSLRLSCAASGFTFSNAWMSWVRQAPGKGLEWVSSISSASGYIYYGDSVKGRFTISRDNSKNTLYLQMNNLRAEDTAVYYCARGTLYGDFDEFWGQGTLVTVSS VL: QSVLTQPPSASGTPGQRVTISCSGSSSNIGNNAVNWYQQLPGTAPKLLIYGNTNRPSGVPDRFSGSKSGTSASLAISGLRSEDEADYYCQSYDSSLSGYVVFGGGTKLTVLG |
| 0.38 | 12 | – | 001-C05 (antibody, V domains shown, IgG) VH: EVQLLESGGGLVQPGGSLRLSCAASGFTFSSNEMSWIRQAPGKGLEWVSVIYSGGSTYYADSVKGRFTISRDNSKNTLYLQMNSLRAEDTAVYYCARREGWLVPFDYWGQGTLVTVSS VL: QSVLTQPPSASGTPGQRVTISCSGSSSNIGSNTVNWYQQLPGTAPKLLIYGNIIRPSGVPDRFSGSKSGTSASLAISGLRSEDEADYYCQSFDTTLSGSIVFGGGTKLTVLG |
| 0.26 | 36 | 0.8 | 001-C07 (antibody, V domains shown, IgG) VH: EVQLLESGGGLVQPGGSLRLSCAASGFTFSSYEMNWVRQAPGKGLEWVSTITGGGSIYDANSVQGRFTISRDNSKNTLYLQMNSLRAEDTAVYYCARDSTYHSSGYYYDVFDIWGQGTLVTVSS VL: not shown |
| 0.25 | 27 | 1 | 001-B11 (antibody, V domains shown, IgG) VH: EVQLLESGGGLVQPGGSLRLSCAASGFTFSSYSMNWVRQAPGKGLEWVAVMSYDEYNTYYADSVKGRFTISRDNSKNTLYLQMNSLRAEDTAVYYCAKGFYGDYPLWDYWGQGTLVTVSS VL: not shown |
| 0.15 | 0.8 | 0.2 | 005-B02 (antibody, V domains shown, IgG) VH: EVQLLESGGGLVQPGGSLRLSCAASGFTFSDYYMSWIRQAPGKGLEWVALIWYDGGNEYYADSVKGRFTISRDNSKNTLYLQMNSLRAEDTAVYYCVRETGNYGMDVWGQGTLVTVSS VL: QSVLTQPPSASGTPGQRVTISCTGSSSNIGAGYDVHWYQQLPGTAPKLLIYRNNQRPSGVPDRFSGSKSGTSASLAISGLRSEDEADYYCATWDDRVNGPVFGGGTKLTVLG |
| 0.37 | 3.9 | 1.4 | 001-D01 (antibody, V domains shown, IgG) VH: not shown VL: QSVLTQPPSASGTPGQRVTISCSGSSSNIGSNTVNWYQQLPGTAPKLLIYGNSNRPSGVPDRFSGSKSGTSASLAISGLRSEDEADYYCQSYDSSLSASVFGGGTKLTVLG |
| 4.4 | 48 | – | 001-A09 (antibody, V domains shown, IgG) VH: EVQLLESGGGLVQPGGSLRLSCAASGFTFSSNYMSWVRQAPGKGLEWVSVISGSGGSTYYADSVKGRFTISRDNSKNTLYLQMNSLRAEDTAVYYCARDRGWFDPWGQGTLVTVSS VL: QSVLTQPPSASGTPGQRVTISCSGSRSNIDNSYVSWYQQLPGTAPKLLIYRNNQRPSGVPDRFSGSKSGTSASLAISGLRSEDEADYYCATWDDSLSGPVFGGGTKLTVLG |
| 0.18 | 29 | – | 001-B09 (antibody, V domains shown, IgG) VH: EVQLLESGGGLVQPGGSLRLSCAASGFTFSRHAMNWVRQAPGKGLEWVSSISTGSSYIDYADSVKGRFTISRDNSKNTLYLQMNSLRAEDTAVYYCAREKGHYYYGMDVWGQGTLVTVSS VL: QSVLTQPPSASGTPGQRVTISCTGSSSNIGAGYDVHWYQQLPGTAPKLLIYGNSYRPSGVPDRFSGSKSGTSASLAISGLRSEDEADYYCQSYDTSLSAYVVFGGGTKLTVLG |
| 0.082 | 2.6 | 1.1 | 001-C08 (antibody, V domains shown, IgG; also called 1-008) VH: EVQLLESGGGLVQPGGSLRLSCAASGFTFSNAWMSWVRQAPGKGLEWVSGISSSGSSAYYADSVKGRFTISRDNSKNTLYLQMNSLRAEDTAVYYCARHYYYHIAGYYYDTFDIWGQGTLVTVSS VL: not shown |

From patent publication US20220002426A1 (BIOINVENT INTERNATIONAL, published 2022)
